Data from PMC10362054, “p53 restoration in small cell lung cancer identifies a latent cyclophilin-dependent necrosis mechanism” (Nature Communications, 2023).

Target: T1, Cyclophilin A (endogenous) (mouse (endogenous in mouse SCLC …, UniProt P17742 1-164))
T1 construct: cyclophilin A, encoded by Ppia, endogenous in cell lines derived from mouse SCLC tumors; also called CypA; PPIA; source: endogenous, mouse SCLC Type D (4711-18) and Type V (4716-10) cells, fixed cells
Assay: proximity ligation; Duolink PLA on fixed Type D (4711-18) and Type V (4716-10) mouse SCLC cells treated with 4-OHT for 48 h; endogenous proteins; antibodies to p53 and to cyclophilin A, D or E
Conditions: partners not purified

T1 sequence (P17742 whole entry): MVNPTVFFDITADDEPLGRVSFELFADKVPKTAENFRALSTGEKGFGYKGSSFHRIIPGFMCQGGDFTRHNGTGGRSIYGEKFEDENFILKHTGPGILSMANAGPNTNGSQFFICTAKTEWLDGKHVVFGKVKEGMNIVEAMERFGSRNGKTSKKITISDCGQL

fold less PLA interaction in Type V cells than in Type D cells: ~10 fold
B1: p53 (endogenous, restored Trp53 allele) (natural protein, UniProt P02340 1-390, looked up)
chain: MTAMEESQSDISLELPLSQETFSGLWKLLPPEDILPSPHCMDDLLLPQDVEEFFEGPSEALRVSGAPAAQDPVTETPGPVAPAPATPWPLSSFVPSQKTYQGNYGFHLGFLQSGTAKSVMCTYSPPLNKLFCQLAKTCPVQLWVSATPPAGSRVRAMAIYKKSQHMTEVVRRCPHHERCSDGDGLAPPQHLIRVEGNLYPEYLEDRQTFRHSVVVPYEPPEAGSEYTTIHYKYMCNSSCMGGMNRRPILTIITLEDSSGNLLGRDSFEVRVCACPGRDRRTEEENFRKKEVLCPELPPGSAKRALPTCTSASPPQKKKPLDGEYFTLKIRGRKRFEMFRELNEALELKDAHATEESGDSRAHSSYLKTKKGQSTSRHKKTMVKKVGPDSD
notes: p53 expressed from the restored endogenous Trp53 allele (p53 R state) in cell lines derived from mouse SCLC tumors; source: endogenous, mouse SCLC Type D (4711-18) and Type V (4716-10) cells after 4-OHT, fixed cells
